Source: patent WO2011097527A2

Assays:
[1] = molecular target: recombinant human FcγRIIb (human) (UniProt P31994); experiment: SPR (Biacore), global Langmuir fit
[2] = molecular target: FcγRIIb on the cell surface (UniProt P31994); experiment: binding to cell-surface FcγRIIb (cells and method not stated)

S239D/S267E (antibody)
Fold (KD(Native IgG1)/KD(variant)) [1]: 150 fold | Kd [1]: 12 nM | EC50 [2]: 2 nM | Fold (cell surface EC50 against native IgG1) [2]: 220 fold
